{"source": "patent US20070249061A1", "about": "(PROTEOGEN, published 2007)", "biological_target": "T1, integrin αvβ3 (UniProt P06756 31-1048; P05106 27-788)", "T1 construct": "Heterodimer immobilized on ProteoChip", "T1 sequence (P06756 31-1048, chain 1 of 2)": "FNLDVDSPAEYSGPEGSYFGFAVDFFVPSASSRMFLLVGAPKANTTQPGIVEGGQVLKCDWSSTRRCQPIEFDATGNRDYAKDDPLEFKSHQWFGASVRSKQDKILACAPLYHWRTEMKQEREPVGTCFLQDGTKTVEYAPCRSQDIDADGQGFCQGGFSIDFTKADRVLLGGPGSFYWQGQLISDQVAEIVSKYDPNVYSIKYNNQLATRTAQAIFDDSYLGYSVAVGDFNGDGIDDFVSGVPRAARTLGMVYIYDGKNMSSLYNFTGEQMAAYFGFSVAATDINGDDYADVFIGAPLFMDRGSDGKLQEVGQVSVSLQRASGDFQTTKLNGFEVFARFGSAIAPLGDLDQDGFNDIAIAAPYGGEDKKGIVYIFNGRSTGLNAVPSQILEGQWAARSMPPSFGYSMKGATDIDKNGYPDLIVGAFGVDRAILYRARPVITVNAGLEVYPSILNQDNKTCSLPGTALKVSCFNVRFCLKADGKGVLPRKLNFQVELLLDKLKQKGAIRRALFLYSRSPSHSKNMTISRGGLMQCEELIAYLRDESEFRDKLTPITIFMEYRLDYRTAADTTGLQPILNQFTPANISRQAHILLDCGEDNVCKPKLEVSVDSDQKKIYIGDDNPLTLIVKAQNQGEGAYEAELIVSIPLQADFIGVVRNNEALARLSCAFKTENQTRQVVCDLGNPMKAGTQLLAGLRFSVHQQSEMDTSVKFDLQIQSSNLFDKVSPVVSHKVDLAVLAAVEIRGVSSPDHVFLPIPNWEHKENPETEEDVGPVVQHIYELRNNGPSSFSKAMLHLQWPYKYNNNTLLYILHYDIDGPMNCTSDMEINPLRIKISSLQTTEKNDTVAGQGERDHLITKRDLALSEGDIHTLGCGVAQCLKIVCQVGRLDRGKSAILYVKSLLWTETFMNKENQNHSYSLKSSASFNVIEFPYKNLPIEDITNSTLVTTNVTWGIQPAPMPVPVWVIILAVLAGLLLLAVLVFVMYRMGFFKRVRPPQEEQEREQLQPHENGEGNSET", "T1 sequence (P05106 27-788, chain 2 of 2)": "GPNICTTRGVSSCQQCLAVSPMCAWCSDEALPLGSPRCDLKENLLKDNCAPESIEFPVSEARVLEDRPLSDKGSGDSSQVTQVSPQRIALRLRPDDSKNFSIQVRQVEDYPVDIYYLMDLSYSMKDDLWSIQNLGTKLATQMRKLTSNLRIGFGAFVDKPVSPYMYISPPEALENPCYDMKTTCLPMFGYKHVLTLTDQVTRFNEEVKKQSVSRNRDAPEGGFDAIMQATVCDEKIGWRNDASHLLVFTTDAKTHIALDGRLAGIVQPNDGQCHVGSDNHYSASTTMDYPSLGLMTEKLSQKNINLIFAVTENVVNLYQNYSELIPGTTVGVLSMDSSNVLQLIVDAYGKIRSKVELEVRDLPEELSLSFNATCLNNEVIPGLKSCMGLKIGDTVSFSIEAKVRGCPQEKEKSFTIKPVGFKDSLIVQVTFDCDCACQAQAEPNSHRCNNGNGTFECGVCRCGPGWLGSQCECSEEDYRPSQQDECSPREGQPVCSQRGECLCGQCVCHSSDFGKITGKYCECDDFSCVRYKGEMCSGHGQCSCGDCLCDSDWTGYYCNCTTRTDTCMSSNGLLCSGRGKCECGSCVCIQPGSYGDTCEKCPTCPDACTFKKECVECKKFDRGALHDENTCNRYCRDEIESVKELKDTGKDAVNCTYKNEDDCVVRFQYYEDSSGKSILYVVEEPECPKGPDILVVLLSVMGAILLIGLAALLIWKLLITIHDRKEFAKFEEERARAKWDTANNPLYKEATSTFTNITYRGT", "experiment": "competitive inhibition of integrin αvβ3-vitronectin interaction on protein chip", "note": "No end group written: not given here.", "data": [{"binder": "HGLVHK-NH2 (also called HGLVHK peptide; peptide number 7)", "note": "[HGLVHK-NH2]", "values": [{"measurement": "IC50", "value": 0.00243, "unit": "ng/mL"}]}, {"binder": "HGDLHK-NH2 (also called HGDLHK peptide; peptide number 4)", "note": "[HGDLHK-NH2]", "values": [{"measurement": "IC50", "value": 0.0307, "unit": "ng/mL"}]}, {"binder": "HGDVHK-NH2 (also called HGDVHK peptide; peptide number 10)", "note": "[HGDVHK-NH2]", "values": [{"measurement": "IC50", "value": 0.0447, "unit": "ng/mL"}]}, {"binder": "HHLLHK-NH2 (also called HHLLHK peptide; peptide number 3)", "note": "[HHLLHK-NH2]", "values": [{"measurement": "IC50", "value": 0.0034, "unit": "ng/mL"}]}, {"binder": "HHLVHK-NH2 (also called peptide number 9)", "note": "[HHLVHK-NH2]", "values": [{"measurement": "IC50", "value": 0.313, "unit": "ng/mL"}]}, {"binder": "HSDVHK-NH2 (also called HSDVHK peptide; peptide number 11)", "note": "[HSDVHK-NH2]", "values": [{"measurement": "IC50", "value": 0.00174, "unit": "ng/mL"}]}, {"binder": "HSLVHK-NH2 (also called peptide number 8)", "note": "[HSLVHK-NH2]", "values": [{"measurement": "IC50", "value": 0.046, "unit": "ng/mL"}]}]}
